Legend:
[1] = PK2 administration in GTT, wild type mice; type: in vivo; conditions: 10 nmol/kg and 200 nmol/kg, wild type mice (FIG. 8)
Description: The compound (3R)-1-Benzyl-N-(9-chloro-3,4-dihydro-2H-1,5-benzodioxepin-7-ylmethyl)-N-isobutyl pyrrolidine-3-carboxamide (3Cl-R-PLP) was dissolved in PEG-400 and then resuspended in water with 8% final concentration of PEG-400.8% PEG-400 in water without drug was used as vehicle. Mice were fed with regular chow. Drug or vehicle was gavaged to mice that were fasted overnight. Two hours later, glucose (2 g/kg of body weight) was injected i.p. and whole venous blood obtained from the tail vein at 0, 15, 30, 90 and 120 min after the injection was measured for glucose by using an automatic glucometer (one Touch, Lifescan, Daly, Calif.).
The inventors next tested the effect of PK2 administration on the performance of GTT test in wild type mice. […] This is consistent with observations that PK2-deficient mice have enhanced glucose clearance abilities.

[2] = Glucose-induced insulin secretion in vivo after PK2 administration; set-up: species or system mice; conditions: glucose i.p., 30 min (FIG. 10)
From the text: To understand whether insulin is directly involved, the inventors examined whether PK2 and/or its two cognate receptors, PKR1 and PKR2, are expressed in pancreas beta cells. […] The inventors tested whether this glucose-induced insulin secretion was inhibited by PK2. […] Consistent with the inhibitory effect of PK2 on insulin secretion, PK2-deficient mice have increased circulating insulin level. It is likely that at least some of glucose-lowering effects of PK2 antagonists were due to their abilities to increase insulin secretion as depicted in FIG. 11.

MIN6 cells [3] = test: Cytosolic calcium mobilization in MIN6 cells; type: cell-based
From the text: (§1) To investigate the direct effects of PK2 on the insulin secretion, the inventors performed a glucose-stimulated insulin secretion on β-cell like MIN6 cells. […] To specifically test the effects of endogenous PK2, the inventors treated MIN6 cells with 4Ind-3Cl-R-BMA along with low and high concentrations of glucose. […] As PK2 receptors have been reported coupling to Gi or Gq proteins, the inventors examined the possible signaling transduction of PK2 receptor in MIN6 cells.

MIN6 cells [4] = test: Glucose-stimulated insulin secretion in MIN6 cells; type: cell-based; conditions: 15 mM glucose, PK2 added (FIG. 12A)
From the text: as §1

MIN6 cells [5] = test: Forskolin-induced cAMP levels in MIN6 cells; type: cell-based; conditions: PK2 (FIG. 12C)
From the text: as §1

B1: PK2: "Mature human prokineticins (PK1 and PK2) contain 86 and 81 amino acids, respectively"; "recombinant PK2" used as agonist (protein, UniProt Q9HC23 28-129, looked up)
Prokineticin-2: AVITGACDKDSQCGGGMCCAVSIWVKSIRICTPMGKLGDSCHPLTRKNNFGNGRQERRKRKRSKRKKEVPFFGRRMHHTCPCLPGLACLRTSFNRFICLAQK
rate of glucose clearance in GTT [1]: significantly reduced the rate of glucose clearance | glucose-induced elevation of circulating insulin [2]: significantly inhibited glucose-induced elevation of insulin in circulation | cytosolic calcium mobilization (MIN6 cells [3]): didn't elicit cytosolic calcium mobilization | insulin secretion induced by glucose (MIN6 cells [4]): significantly suppressed the insulin secretion | forskolin-induced cAMP levels (MIN6 cells [5]): significantly inhibited forskolin-induced cAMP levels

From patent publication US8722896B2, “Prokineticin receptor antagonists and uses thereof” (The Regents of the University of California, priority 2008, dated 2014)
